Results reported in US20220281959A1 (DIACCURATE, published 2022).
Substitutions are numbered along the chain they refer to. Ends that are not written are not given here.

B1: anti-PEP3 mAb 9B12 (antibody, V domains shown)
VH: QVQLQQSGPELVKPGASVKISCKASGYGFSDSWMNWVKQRPGKGLDWIGRIYPGDGDTDYNGKFKDKATLTADKSSTTAYMQLSSLTSEDSAVYFCAYLGHWGQGTLVTVSA
VL: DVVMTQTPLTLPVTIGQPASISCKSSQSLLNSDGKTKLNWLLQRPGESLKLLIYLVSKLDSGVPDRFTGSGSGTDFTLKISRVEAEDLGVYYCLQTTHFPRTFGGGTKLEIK
B2: anti-PEP3 mAb 3A2 (antibody, V domains shown)
VH: QVQLQQPGAELVKPGASVKLSCKASGYIFTNYWMHWVRQRPGQGPEWIGMIHPNRGDLHYSEKFNNKATLTVDKSSSTAYMQLNSLASEDSAVYFCARAGLGVFDYWGQGSTLTVSS
VL: DVVMTQTPLSLPVSLGDQVSMSCRSSQSIEHSNRNTYLEWYLHKPGQAPQLLIYGVSNRFTGVPDRFSGSGSGTDFTLKISRVEAEDMGVYHCLQGTHVPFTFGSGTKLEIK
B3: anti-PEP3 mAb 5E12 (antibody, V domains shown)
VH: QIQLVQSGPELKKPGETVKISCKASGYTFRTYGMSWVKQAPGKGLKWMGWINTYSGVPRYVDDFKGRFALSLETSASTAYLQINNLKSEDTATYFCVREGYSYYGSSFHTMDYWGQGTSVTVSS
VL: DIQMTQTPLTLSVTIGHPASISCKSSQSLLHTNGKIYLNWLLQRPGQSPKRLIYLVSKLDSGVPDRFSGSGSGTDFTLKISRVEAEDLGVYYCLQSTHFPQTFGGGTKLEIK
B4: anti-PEP3 mAb 15B4 (antibody, V domains shown)
VH: QVQLQQSGPELVRPGTSVKISCKAPGYSFTSHWMQWLRQRPGQGLEWIGEIFPGSGKTYYNEKFKDKATLTADTSSTTVYMQFSSLTSEDSAVYFCASDYDGGDYWGQGTTLTVSS
VL: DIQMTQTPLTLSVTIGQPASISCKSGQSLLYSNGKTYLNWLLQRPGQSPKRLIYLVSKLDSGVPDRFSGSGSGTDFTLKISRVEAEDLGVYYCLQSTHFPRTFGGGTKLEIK
B5: anti-PEP3 mAb 8D5 (antibody, V domains shown)
VH: QVQLQQPGAELIEPGTSVKLSCKASGYTFTTYWMHWVKQRPGQGLEWIGMIHPNSGDTFYNENFKNKATLTVDISSSTVYMELSSLTSEDSAVYSCVKAGTGALDYWGQGTTLTVSS
VL: DVVMTQTPLSLPVSLGDQASISCRSSQSIVHSNRYTYLEWYLQRPGQSLKLLIYGVSNRFSGVPDRFSGSGSGTDFILKISRVEAEDMGVYYCFQGTHVPFTFGSGTKLEIK
B6: anti-PEP3 gp41 mAb 4G1 (antibody, V domains shown)
VL: B5 VL with P12C, S25T, R44K, S48P, V56I, S57A, I77T, F94L
V domain: QVQLQQPGAELVKPGASVKLSCKASGYIFRNYWMHWVKQRPGQGLEWIGMIHPNSDITHYNEKFKNRATLTVDKSSSTAYMQLNSLTSEDSAVYYCARGGLGVFDYWGQGTALRVSS
notes: Also used biotinylated (4G1-biot) as detection antibody; also called 4G1 anti-PEP3 mAb; 4G1 mAb

What follows are binders tested against T1, HIV-1 MN gp41 recombinant protein produced in E. coli (565-771Delta642-725) (HIV-1 MN) (assay: ELISA, hybridoma supernatant 1/10, coated MN gp41).
T1 construct: range 565-771; Residues 642-725 are deleted; also called MN gp41 (produced in E. coli); MN gp41 protein

Row | Binder | ELISA screening signal
1 | B1 | 0.047
2 | B2 | 2.75
3 | B3 | 2.71
4 | B4 | 1.45
5 | B5 | 2.55

Target: T2, BSA-PEP3 peptide (HIV-1 MN strain, also: conjugated to BSA)
T2 construct: The KLH immunogen carried an added N-terminal Cys
T2 peptide: PWNASWSNKSLDDIW
Test: ELISA, hybridoma supernatant 1/10, coated BSA-PEP3

Row | Binder | ELISA screening signal
6 | B1 | 2.78
7 | B2 | 3.06
8 | B3 | 3.21
9 | B4 | 2.59
10 | B5 | 2.69

Target: T2, BSA-PEP3 peptide
Test: ELISA, hybridoma supernatant pure, coated BSA-PEP3

Row | Binder | ELISA screening signal
11 | B1 | 2.79
12 | B2 | 2.93
13 | B3 | 3
14 | B4 | 2.73
15 | B5 | 2.51

These binders were tested against T3, HXB2 gp41 recombinant protein (a.a. 534-681) (HIV-1 HXB2, UniProt P04578 534-681) (assay: sandwich ELISA, 72D7 capture 10 µg/ml, HXB2 gp41 titrated, biotinylated 4G1 detection 20 µg/ml).
T3 construct: Bought; tags not described; also called ABIN1605865

Row | Binder | EC50 [µg/mL]
16 | B6 | 0.34

The binders below were run against T1, HIV-1 MN gp41 recombinant protein … (assay: ELISA, hybridoma supernatant pure, coated MN gp41).

Row | Binder | ELISA screening signal
17 | B1 | 0.054
18 | B2 | 2.63
19 | B3 | 2.61
20 | B4 | 1.81
21 | B5 | 2.58

The binders below were run against T3, HXB2 gp41 recombinant protein (a.a. …) (assay: sandwich ELISA, mAb capture, gp41 titrated, biotinylated goat pAb detection).

Row | Binder | minimal amount of gp41 detected [ng/mL]
22 | B2 | ~1
23 | B4 | > 10
24 | B6 | ~1
25 | B5 | ~1
